Data on three molecules can be found in PMC8421406, “C9orf72-derived arginine-rich poly-dipeptides impede phase modifiers” (Nature Communications, 2021).

As usually defined, the stoichiometry N is the number of molecules, sites or subunits per partner or assembly. Broadly, the Kd is the constant that tells how readily two partners part at equilibrium.

Holding throughout (settings): both partners purified
For experiment [1], the target named is T1, mCh:FUS-LC (mCherry fusion LC-domain of FUS, residue 2–214), as hydrogel (UniProt P35637 2-214).
T1 construct: fused in sarcoma (FUS), LC-domain, residue 2–214; Polymerised in the hydrogel; plasmid from the Steven L. McKnight Laboratory; source: E. coli BL21(DE3), purified (Ni-NTA Agarose), prepared as hydrogel droplets; not shown: mCherry, N-terminal, kept
T1 sequence (looked up): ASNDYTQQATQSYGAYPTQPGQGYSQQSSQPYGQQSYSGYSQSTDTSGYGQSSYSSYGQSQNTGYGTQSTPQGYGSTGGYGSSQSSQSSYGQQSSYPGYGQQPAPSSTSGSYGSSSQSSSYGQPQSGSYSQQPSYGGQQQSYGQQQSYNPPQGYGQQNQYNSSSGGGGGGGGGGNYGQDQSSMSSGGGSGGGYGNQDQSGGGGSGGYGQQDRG
The experiment in a line: hydrogel binding assay; 1 µM purified GFP-fused protein pipetted onto hydrogel droplets of the mCherry-fused LC-domain, overnight, confocal microscopy; ± Kapβ2 (0.1, 0.3, 1.0 µM) ± PR20; 20 mM Tris-HCl pH 7.5, 150 mM NaCl, 20 mM β-mercaptoethanol, 0.1 mM PMSF, 0.5 mM EDTA.

Experiment [2] addresses T2, karyopherin-β2 (Kapβ2) (UniProt Q92973 1-898, for NMR: [U-2H; Ile-δ1-13CH3; Leu, Val-13CH3/12CH3]-labeled).
T2 construct: karyopherin-β2 (Kapβ2), nuclear import receptor; Expressed as GST fusion from pGEX6P-1; also called isotopically labeled Kapβ2; source: E. coli BL21(DE3), purified (GSH Sepharose, HRV3C cleavage, anion exchange, gel filtration); not shown: GST, N-terminal, cleaved
T2 sequence (looked up): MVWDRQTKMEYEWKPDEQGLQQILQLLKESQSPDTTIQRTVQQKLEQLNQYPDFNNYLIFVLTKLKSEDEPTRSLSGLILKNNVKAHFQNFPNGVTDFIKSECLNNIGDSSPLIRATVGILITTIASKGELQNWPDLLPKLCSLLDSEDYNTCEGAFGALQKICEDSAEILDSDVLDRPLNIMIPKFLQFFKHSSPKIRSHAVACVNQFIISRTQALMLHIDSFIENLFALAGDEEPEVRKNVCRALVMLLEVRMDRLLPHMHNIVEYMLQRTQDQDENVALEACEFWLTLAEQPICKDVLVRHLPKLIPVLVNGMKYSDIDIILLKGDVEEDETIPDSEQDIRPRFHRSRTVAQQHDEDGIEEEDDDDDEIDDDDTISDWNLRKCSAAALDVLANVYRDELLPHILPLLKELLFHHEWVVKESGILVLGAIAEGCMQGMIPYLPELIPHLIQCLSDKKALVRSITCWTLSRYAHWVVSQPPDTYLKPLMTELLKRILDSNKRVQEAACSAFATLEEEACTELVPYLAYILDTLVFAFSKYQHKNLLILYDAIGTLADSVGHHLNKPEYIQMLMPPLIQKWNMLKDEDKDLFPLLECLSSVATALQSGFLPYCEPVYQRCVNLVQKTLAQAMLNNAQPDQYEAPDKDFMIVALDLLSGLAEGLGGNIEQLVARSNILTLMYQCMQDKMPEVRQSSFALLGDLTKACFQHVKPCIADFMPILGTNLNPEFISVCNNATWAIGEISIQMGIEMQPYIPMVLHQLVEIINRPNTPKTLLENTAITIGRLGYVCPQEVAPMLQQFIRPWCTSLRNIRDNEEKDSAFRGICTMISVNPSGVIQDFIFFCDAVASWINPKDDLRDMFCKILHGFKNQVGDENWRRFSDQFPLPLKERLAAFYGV
The experiment in a line: SEC-MALS; Superdex200 10/300 GL; 28 µM Kapβ2 injected in the absence and presence of 55 µM MBP:PR18; 20 mM HEPES pH 7.4, 150 mM NaCl, 2 mM MgCl2, 10% glycerol, 2 mM β-mercaptoethanol. (In general: In gel filtration, larger molecules generally elute earlier.)

The target of experiment [3] is T3, Kapβ2 (ΔLoop, residues 321–371 were replaced with GGSGGSGS linker) (UniProt Q92973-2 1-320; Q92973-2 372-890).
T3 construct: karyopherin-β2 (Kapβ2), the part before the loop, up to residue 320; linker that replaces residues 321–371; karyopherin-β2 (Kapβ2), the part after the loop, from residue 372; source: E. coli BL21(DE3), purified; not shown: GST, N-terminal, cleaved
T3 chain: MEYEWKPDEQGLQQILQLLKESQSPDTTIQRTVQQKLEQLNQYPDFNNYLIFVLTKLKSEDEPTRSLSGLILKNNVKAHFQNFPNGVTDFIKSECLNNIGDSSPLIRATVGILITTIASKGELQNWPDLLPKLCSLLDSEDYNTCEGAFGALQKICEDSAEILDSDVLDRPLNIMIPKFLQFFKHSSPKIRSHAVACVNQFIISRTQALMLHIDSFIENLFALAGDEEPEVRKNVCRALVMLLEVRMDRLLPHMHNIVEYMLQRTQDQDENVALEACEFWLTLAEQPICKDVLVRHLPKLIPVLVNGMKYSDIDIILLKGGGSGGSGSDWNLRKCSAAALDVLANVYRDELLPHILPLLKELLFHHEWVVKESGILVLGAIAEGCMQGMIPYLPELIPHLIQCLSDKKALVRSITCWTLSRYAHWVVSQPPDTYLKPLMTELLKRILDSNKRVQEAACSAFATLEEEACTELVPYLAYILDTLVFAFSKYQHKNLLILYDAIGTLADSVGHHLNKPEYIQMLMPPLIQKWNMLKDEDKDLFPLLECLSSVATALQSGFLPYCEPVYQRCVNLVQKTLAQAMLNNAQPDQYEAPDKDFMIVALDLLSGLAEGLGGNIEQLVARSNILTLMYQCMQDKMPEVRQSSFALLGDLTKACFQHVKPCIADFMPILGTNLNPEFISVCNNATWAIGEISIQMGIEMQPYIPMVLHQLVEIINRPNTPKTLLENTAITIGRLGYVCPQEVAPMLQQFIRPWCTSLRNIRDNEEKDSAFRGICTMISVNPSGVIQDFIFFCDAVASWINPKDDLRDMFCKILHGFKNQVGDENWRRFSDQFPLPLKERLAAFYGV
The experiment in a line: ITC; 200 μM MBP:PR18 titrated into 20 μM Kapβ2 (ΔLoop) in the cell; 25 °C; 20 mM HEPES pH 7.4, 150 mM NaCl, 10% glycerol, 2 mM β-mercaptoethanol; 19 injections of 2 μL.

B1: GFP:FUS-LC:NLS (GFP:FUS-LC fusion FUS-NLS, 501–526) (domain or fragment, UniProt P35637 2-214, looked up)
chain: ASNDYTQQATQSYGAYPTQPGQGYSQQSSQPYGQQSYSGYSQSTDTSGYGQSSYSSYGQSQNTGYGTQSTPQGYGSTGGYGSSQSSQSSYGQQSSYPGYGQQPAPSSTSGSYGSSSQSSSYGQPQSGSYSQQPSYGGQQQSYGQQQSYNPPQGYGQQNQYNSSSGGGGGGGGGGNYGQDQSSMSSGGGSGGGYGNQDQSGGGGSGGYGQQDRGGDRGGFGPGKMDSRGEHRQDRRERPY
notes: fused in sarcoma (FUS), LC-domain, residue 2–214; fused in sarcoma (FUS), NLS, residue 501–526; Built with the In-Fusion HD Cloning Kit; also called FUS-LC fusion NLS; source: E. coli BL21(DE3), purified (Ni-NTA Agarose); not shown: GFP, N-terminal, kept
Consider B1, for which the binding result in experiment [1] is recorded as “binds”.

B2: MBP:PR18 (18 repeats of Pro-Arg) (peptide)
chain: PRPRPRPRPRPRPRPRPRPRPRPRPRPRPRPRPRPR
notes: proline:arginine poly-dipeptide from the C9orf72 repeat expansion; source: E. coli BL21(DE3), purified (amylose resin, cation exchange, gel filtration); not shown: MBP, N-terminal, kept
On to B2, for which the “stoichiometry N” value in experiment [2] worked out at 1. This molecule also yielded a Kd in experiment [3] of 81.3 nM.

B3: GFP:FUS-LC (green fluorescent protein fusion LC-domain of FUS, residue 2–214) (domain or fragment, UniProt P35637 2-214, looked up)
chain: T1 sequence (looked up)
notes: fused in sarcoma (FUS), LC-domain, residue 2–214; Plasmid from the Steven L. McKnight Laboratory; source: E. coli BL21(DE3), purified (Ni-NTA Agarose); not shown: GFP, N-terminal, kept
B3: the binding result in experiment [1] is given as “binds”.
